Assay [1] deals with T1, human PHA blasts expressing LAG-3 (Homo sapiens, UniProt P18627).
T1 construct: To human PBMCs stimulated with 2 μg/mL of PHA (manufactured by Sigma-Aldrich) for three days; endogenous in cells; host or cells: human PBMCs stimulated with PHA for three days (PHA blasts)
T1 sequence (P18627 23-525): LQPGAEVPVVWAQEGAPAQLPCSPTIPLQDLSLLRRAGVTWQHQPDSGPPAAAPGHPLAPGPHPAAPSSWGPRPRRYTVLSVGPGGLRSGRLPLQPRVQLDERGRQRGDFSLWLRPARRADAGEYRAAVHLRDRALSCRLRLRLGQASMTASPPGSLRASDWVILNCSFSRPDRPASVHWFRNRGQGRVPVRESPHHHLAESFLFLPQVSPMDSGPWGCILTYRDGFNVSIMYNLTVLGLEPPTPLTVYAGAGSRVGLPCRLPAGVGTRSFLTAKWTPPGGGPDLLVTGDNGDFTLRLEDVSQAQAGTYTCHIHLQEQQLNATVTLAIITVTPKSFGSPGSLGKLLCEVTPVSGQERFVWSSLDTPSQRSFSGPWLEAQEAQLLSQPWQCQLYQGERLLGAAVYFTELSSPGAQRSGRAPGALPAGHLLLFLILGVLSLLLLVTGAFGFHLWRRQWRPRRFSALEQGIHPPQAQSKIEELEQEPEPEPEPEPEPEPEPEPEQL
Kind of assay: Binding activity to activated human T cells (PHA blasts) by flow cytometry. As to conditions: mean fluorescence intensity. The method, then: It was further confirmed by flow cytometry that the antibody produced by the hybridomas determined to be positive by the Cell-ELISA in Example 1)-3 binds to PHA (phytohemagglutinin) activated human T cells (PHA blasts), a more physiologically relevant cell type expressing LAG-3. To human PBMCs stimulated with 2 μg/mL of PHA (manufactured by Sigma-Aldrich) for three days, was added a hybridoma culture supernatant for suspension, followed by reaction at 4° C. for 30 minutes. After washing with a FACS buffer (PBS, 0.1% BSA, and 0.1% sodium azide), a secondary antibody such as an Anti-Rat IgG PE conjugate (manufactured by Jackson ImmunoResearch Laboratories, Inc.) diluted 200-fold with a FACS buffer comprising a LIVE/DEAD Fixable Dead Cell Stain Kit-near-IR fluorescent reactive dye (manufactured by Invitrogen Corp.) was added thereto for suspension, followed by standing at 4° C. for 30 minutes. After washing with a FACS buffer, the cells were resuspended in PBS containing 1 to 2% paraformaldehyde, followed by detection using a flow cytometer (CantoII: manufactured by Becton, Dickinson and Company or FC500: manufactured by Beckman Coulter Inc.). The data was analyzed using FlowJo (manufactured by Tree Star Inc). After removal of the LIVE/DEAD Fixable Dead Cell Stain Kit-near-IR fluorescent reactive dye-positive dead cells by gating, a histogram of the fluorescence intensity of the living cells was plotted.
The binding activity of the rat anti-human LAG-3 antibodies rLA204, rLA212, rLA225, rLA869, and rLA1264 purified by the method described in Example 1)-7 to activated human T cells was investigated.
In general terms: In flow cytometry, cells or beads pass a laser one at a time.

Assay [2] concerns the target T2, binding of LAG-3 to MHC class II molecules (293T-hLAG-3 cells / Raji cells) (Homo sapiens, UniProt P18627).
T2 construct: expressed in transfected cells; host or cells: 293T cells, transient transfection (Lipofectamine 2000)
T2 sequence (P18627 23-525): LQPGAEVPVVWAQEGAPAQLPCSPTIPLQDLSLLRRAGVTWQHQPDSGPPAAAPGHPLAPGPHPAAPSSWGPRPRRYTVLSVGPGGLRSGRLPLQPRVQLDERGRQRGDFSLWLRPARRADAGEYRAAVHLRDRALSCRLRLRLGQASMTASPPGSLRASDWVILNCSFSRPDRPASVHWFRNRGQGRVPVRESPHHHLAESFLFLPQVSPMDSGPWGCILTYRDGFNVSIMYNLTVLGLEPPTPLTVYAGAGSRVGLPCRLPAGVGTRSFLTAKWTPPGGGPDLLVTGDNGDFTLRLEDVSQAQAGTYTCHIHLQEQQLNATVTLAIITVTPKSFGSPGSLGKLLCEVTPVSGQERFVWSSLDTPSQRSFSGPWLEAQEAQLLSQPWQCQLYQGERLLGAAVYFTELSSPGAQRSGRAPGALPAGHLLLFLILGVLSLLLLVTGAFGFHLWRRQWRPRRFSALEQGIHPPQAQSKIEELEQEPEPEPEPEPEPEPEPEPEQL
Kind of assay: 293T-hLAG-3/Raji cell adhesion test. Format: cell-based. The conditions noted are these: 10 μg/mL. The source says:
In the LAG-3/MHC class II binding test according to Example 2)-3, the binding of the secondary antibody Anti-Human IgG PE conjugate for detecting binding of LAG-3-Fc to Raji cells could be inhibited by steric hindrance caused by binding of the anti-LAG-3 antibody to LAG-3-Fc, and thus the possibility of apparently showing a low fluorescence intensity cannot be completely excluded, despite the antibody not actually directly inhibiting the binding of LAG-3/MHC class II. Therefore, as an evaluation system without using a secondary antibody for detection, the following 293T-hLAG-3/Raji cell adhesion test system was constructed to evaluate the antibody.
Human LAG-3 expression plasmid pcDNA3.1/hLAG-3 was introduced into 293T cells using Lipofectamine 2000 (manufactured by Life Technologies Corp.), and the cells were inoculated onto a BioCoat poly-D-lysine-coated 96-well microplate (manufactured by Becton, Dickinson and Company) and cultured overnight. Meanwhile, Raji cells were labeled in a medium (RPMI1640 containing 10% FBS) with fluorescent dye BCECF-AM (manufactured by DOJINDO LABORATORIES, used at 10 μM) at 37° C. for 1 hour, followed by washing and then suspending in a medium to 1.6×10^6 cells/mL. After the transfection, the medium of the cells (293T-hLAG-3 cells) cultured overnight was removed, and 50 μL/well of a medium and 25 μL/well of an antibody solution were added thereto, followed by pre-incubation at 37° C. for 30 minutes. Thereafter, 25 μL/well of the BCECF-AM labeled Raji cells was added thereto, followed by centrifugation at 900 rpm for 30 seconds and incubation at 37° C. for 1 hour. After the reaction, the well was washed with medium two to three times to remove nonadherent cells, and the cells were lysed in 100 µL/well of a Tris buffer (25 mM, pH 8.0) containing 0.1% NP-40, to measure the fluorescence intensity of the well with a plate reader (ENVISION: manufactured by PerkinElmer Inc). The percentage of inhibition was calculated by the following formula.
Percentage of inhibition (%)=100−(A−B)/(C−B)×100 • A: Fluorescence intensity of each sample well • B: Fluorescence intensity of background
When adding the Raji cells and the antibody, a medium was added thereto. Except for that, the same operation as in the sample well was performed. • C: Fluorescence intensity of maximum binding
When adding the antibody, a medium was added thereto.

B1: rLA869: anti-human LAG-3 rat monoclonal antibody; heavy chain variable region SEQ ID No: 14, light chain variable region SEQ ID No: 16 (antibody, listed as Rattus norvegicus, V domains shown)
VH: EVQLVESGGGLVQPGRSLKLSCAASGFTYRTYVMAWVRQGPTQGLEWVASISTGGVSTYYRDSVKGRFTISRDNAKNTLYLQMDSLRSEDTATYYCAKDMLNGYNSQGLFDYWGQGVMVTVSS
VL: NIVMTQSPKSMSISVGDRVTMNCRASQNVDNTIAWYQQKPGQSPKLLIYFASDRYTGVPDRFTGGGYGTDFTLTINSVQAEDAAFYYCQRIYNSPLTFGSGTKLEIRRA
Consider B1, for which, in assay [1], the “binding to activated human T cells (PHA blasts)” value (“binding” for short) is given as “bound to PHA blasts prepared as in vitro activated human T cells in a concentration-dependent manner”. Moreover, the “inhibitory activity in the 293T-hLAG-3/Raji cell adhesion test” value (from here on “inhibitory activity”) in assay [2] was “almost no inhibitory activity”.

B2: rLA225: anti-human LAG-3 rat monoclonal antibody; heavy chain variable region SEQ ID No: 10, light chain variable region SEQ ID No: 12 (antibody, listed as Rattus norvegicus, V domains shown)
VH: EVQLVESGGGLVQPGRSMKLSCVASGFTFSNYYMAWVRQAPTKGLEWVASISTGGGNTYYRDSVKGRFTISRDNAKSTLYLQMDSLRSEDTATYYCARPPYGYNYGWFTYWGQGTLVTVSS
VL: DIQMTQSPASLSASLGETVTIECRASEDIHNGLVWYQQKPGKSPQLLIYNANSMHTGVPSRFSGSGSGTQYSLKINSLQSEDVASYFCQQYYNYPRTFGGGTKLELKRA
In the case of B2, in assay [1], the “binding” value is recorded as “bound to PHA blasts prepared as in vitro activated human T cells in a concentration-dependent manner”. For the same molecule, in assay [2], the “inhibitory activity” value is “almost no inhibitory activity”.

B3: rLA204: anti-human LAG-3 rat monoclonal antibody; heavy chain variable region SEQ ID No: 2, light chain variable region SEQ ID No: 4 (antibody, listed as Rattus norvegicus, V domains shown)
VH: EVELVESGGGLVQPGRSMKLSCAASGFTFRTYGMAWVRQAPTKGLEWVASISTGGGSTYYRDSVKGRFTISRDNAKSTLYLQMDSLRSEDTATYYCTTDLINYPGIGGFAFWGQGTLVTVSS
VL: NIVMTQSPKSMSISVGDRVTMNCKASQNVYNNIAWYQQKPGKSPKLLIYYASNRYTGVPDRFTGSGSGTDFTLTIHSVQAEDAAFYYCQRLYNSPPTFGGGTKLELKRA
For the molecule B3, the “binding” value in assay [1] is recorded as “bound to PHA blasts prepared as in vitro activated human T cells in a concentration-dependent manner”. In addition, the “inhibitory activity” value in assay [2] is recorded as “almost no inhibitory activity”.

B4: rLA212: anti-human LAG-3 rat monoclonal antibody; heavy chain variable region SEQ ID No: 6, light chain variable region SEQ ID No: 8 (antibody, listed as Rattus norvegicus, V domains shown)
VH: EVQLVESGGGLVQPGRSLKLSCAASGFTYRSYVMAWVRQAPTRGLEWVASISTGGGNTYYRDSVKGRFTISRDNAKNTLYLQMDSLRSEDTATYYCAEDMSNSGYGLFDYWGQGVMVTVSS
VL: NIVMTQSPKSMSISVGDRVTMNCKAGQNVDNNIAWYQKKPGQSPKLLIYYASNRNTGVPDRFTGGGYGTDFTLTINSVQAEDAAFYYCQRISNSPYTFGAGTELELKRA
For B4, in assay [1], the “binding” value is reported as “bound to PHA blasts prepared as in vitro activated human T cells in a concentration-dependent manner”. Further, the “inhibitory activity” value in assay [2] is “almost no inhibitory activity”.

B5: rLA1264: anti-human LAG-3 rat monoclonal antibody; heavy chain variable region SEQ ID No: 18, light chain variable region SEQ ID No: 20 (antibody, listed as Rattus norvegicus, V domains shown)
VH: EVQLVESGGGLVQPGRSLKLSCAASGFTFSSYYMAWVRQAPTKGLEWVAYISNGGYSTYYRDSVKGRFTISRENAKSTLYLQMDSLRSEDTATYYCTITDHSGYRFTYWGQGTLVTVSS
VL: DIQMTQSPSLLSASVGDRVTLSCKASQSIYNSLAWYQQKLGEAPKLLIYDANSLQTGIPSRFSGSGSGTDFTLTISSLQPEDVATYFCQKYYSGNTFGAGTKLELKRA
In the case of B5, in assay [1], the “binding” value was “bound to PHA blasts prepared as in vitro activated human T cells in a concentration-dependent manner”. Moreover, in assay [2], the “inhibitory activity” value is “almost no inhibitory activity”.

The values are drawn from patent US12145987B2, “Method for depleting cytotoxic T cells using an anti-LAG-3 antibody composition” (Daiichi Sankyo Company, Limited, priority 2017, dated 2024).
